Assay results as given in article PMC4081077, “Sequence-specific interactions of Rep proteins with ssDNA in the AT-rich region of the plasmid replication origin”.

Experiments:
[1] = molecular target: T1, TrfA-33 G254D/S267L (monomeric) (plasmid RK2, UniProt P07676 98-382, G254D;S267L); assay: EMSA; EMSA: 40 mM HEPES-KOH pH 8, 25 mM Tris-HCl pH 7.6, 100 mM NaCl, 4% sucrose, 4 mM DTT, 80 ug/ml BSA, 32 C 20 min, 1 pmol probe, 5-20 pmol Rep; SPR: HBS-EP (150 mM NaCl, 10 mM HEPES pH 7.4, 3 mM EDTA, 0.005% P20); settings: protein: recombinant; label: Alexa555 3' tailed (EMSA); immobilized on streptavidin chip (SPR); fluorescent (gel filtration)
T1 sequence: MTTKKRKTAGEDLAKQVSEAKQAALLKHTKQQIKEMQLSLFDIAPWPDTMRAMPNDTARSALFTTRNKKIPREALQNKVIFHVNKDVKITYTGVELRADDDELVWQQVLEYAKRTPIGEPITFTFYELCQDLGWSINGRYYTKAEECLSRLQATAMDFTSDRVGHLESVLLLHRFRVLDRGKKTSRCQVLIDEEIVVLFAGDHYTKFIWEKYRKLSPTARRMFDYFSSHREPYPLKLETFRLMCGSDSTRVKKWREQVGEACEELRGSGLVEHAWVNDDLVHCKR

[2] = molecular target: T1, TrfA-33 G254D/S267L (monomeric); assay: SPR; 0.1-1 uM TrfA; response over five times lower than wild type; EMSA: 40 mM HEPES-KOH pH 8, 25 mM Tris-HCl pH 7.6, 100 mM NaCl, 4% sucrose, 4 mM DTT, 80 ug/ml BSA, 32 C 20 min, 1 pmol probe, 5-20 pmol Rep; SPR: HBS-EP (150 mM NaCl, 10 mM HEPES pH 7.4, 3 mM EDTA, 0.005% P20); settings: protein: recombinant; label: Alexa555 3' tailed (EMSA); immobilized on streptavidin chip (SPR); fluorescent (gel filtration)
[3] = molecular target: T1, TrfA-33 G254D/S267L (monomeric); assay: SPR; 0.1-1 uM TrfA; higher affinity than bottom ssDNA; EMSA: 40 mM HEPES-KOH pH 8, 25 mM Tris-HCl pH 7.6, 100 mM NaCl, 4% sucrose, 4 mM DTT, 80 ug/ml BSA, 32 C 20 min, 1 pmol probe, 5-20 pmol Rep; SPR: HBS-EP (150 mM NaCl, 10 mM HEPES pH 7.4, 3 mM EDTA, 0.005% P20); settings: protein: recombinant; label: biotin; blunt
[4] = molecular target: T1, TrfA-33 G254D/S267L (monomeric); assay: EMSA; up to 20 pmol TrfA per 1 pmol probe; EMSA: 40 mM HEPES-KOH pH 8, 25 mM Tris-HCl pH 7.6, 100 mM NaCl, 4% sucrose, 4 mM DTT, 80 ug/ml BSA, 32 C 20 min, 1 pmol probe, 5-20 pmol Rep; SPR: HBS-EP (150 mM NaCl, 10 mM HEPES pH 7.4, 3 mM EDTA, 0.005% P20); settings: protein: recombinant; label: Alexa555 3' tailed (EMSA); immobilized on streptavidin chip (SPR); fluorescent (gel filtration)
RepE R118P (monomeric) = RepE R118P (monomeric) (plasmid F, UniProt P03856 1-251, R118P); assay: gel filtration; tripartite with plasmid cccDNA; EMSA: 40 mM HEPES-KOH pH 8, 25 mM Tris-HCl pH 7.6, 100 mM NaCl, 4% sucrose, 4 mM DTT, 80 ug/ml BSA, 32 C 20 min, 1 pmol probe, 5-20 pmol Rep; SPR: HBS-EP (150 m)

B1: ssDNA DUEoriV bottom swap M2-R (ssDNA)
DNA: CCACCGCATTGGACAGAAAATTGGACGAAAATAACCAATATTTATAAACCTTGTTTTTAACCAGGGCTGC
binding result [1]: no binding

B2: ssDNA DUEoriV bottom swap R (ssDNA)
DNA: CCACCGCATTGGACAGAAAATTGGACGAAAATTTGGTTATAAATTAAACCTTGTTTTTAACCAGGGCTGC
binding signal [2]: < 0.2 SPR response relative to N2

B3: dsDNA iterons (five RK2 iterons) (dsDNA)
DNA 1: CCTGCGGTATTGACACTTGAGGGGCGCGACTACTGACAGATGAGGGGCGCGATCCTTGACACTTGAGGGGCAGAGTGATGACAGATGAGGGGCGCACCTATTGACATTTGAGGGGCTGTCCACAGGCAG
DNA 2: CTGCCTGTGGACAGCCCCTCAAATGTCAATAGGTGCGCCCCTCATCTGTCATCACTCTGCCCCTCAAGTGTCAAGGATCGCGCCCCTCATCTGTCAGTAGTCGCGCCCCTCAAGTGTCAATACCGCAGG
binding result [3]: binds

B4: ssDNA DUEoriV bottom swap M1-R (ssDNA)
DNA: CCACCGCATTGGACAGAAAAAACCTGCTTTTAAACCAATATTTATAAACCTTGTTTTTAACCAGGGCTGC
binding result [1]: no binding

B5: ssDNA DUEoriV top (ssDNA)
DNA: CCACCGCTAACCTGTCTTTTAACCTGCTTTTAAACCAATATTTATAAACCTTGTTTTTAACCAGGGCTGC
binding result [4]: no binding

B6: ssDNA DUEoriS bottom (ssDNA)
DNA: GCTCTAAAAAAGAAGATCTAAAAACTATAAAAAAAATAATTATAAAAATATCCCCGTG
binding result (RepE R118P (monomeric)): binds
